Substitutions are numbered along the chain they refer to. Names and notes keep the numbering of the source.

Assay [1] deals with T1, human CD154, soluble antigen (human, UniProt P29965 116-261, limits assumed).
T1 construct: KinExA uses 'soluble antigen'; also called CD40 ligand; CD40L
T1 sequence (looked up): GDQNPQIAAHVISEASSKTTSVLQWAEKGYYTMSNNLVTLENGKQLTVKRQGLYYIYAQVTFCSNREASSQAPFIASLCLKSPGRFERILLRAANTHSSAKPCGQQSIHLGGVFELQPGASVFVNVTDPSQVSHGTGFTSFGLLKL
Briefly: KinExA solution-phase equilibrium, Fab with soluble antigen.

Assay [2] addresses T1, human CD154, soluble antigen. The experiment in a line: assay not named in the sentence (the paragraph speaks of competitive ELISA).
The target is the same in assay [3]. The experiment in a line: ELISA-based competitive binding assay; unlabeled Fab against biotin-labeled 5c8 Fab competitor.
Another assay deals with T2, CD154 on D1.1 cells (human, UniProt P29965 1-261).
T2 sequence (looked up): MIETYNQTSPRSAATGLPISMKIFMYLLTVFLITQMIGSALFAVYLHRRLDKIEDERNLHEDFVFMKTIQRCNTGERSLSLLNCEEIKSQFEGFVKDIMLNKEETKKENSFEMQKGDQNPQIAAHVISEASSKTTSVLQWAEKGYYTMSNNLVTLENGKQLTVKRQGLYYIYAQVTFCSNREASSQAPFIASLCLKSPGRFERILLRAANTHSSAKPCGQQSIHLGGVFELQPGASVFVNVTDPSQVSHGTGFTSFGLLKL
Briefly: cell-based or functional assay.

Assay [4] has as its target T1, human CD154, soluble antigen. Briefly: assay not given.

B1: 5c8 Fab Mutant #14 (light chain S26D/Q27E) (Fab, V domains shown)
VH: QVQLVQSGAEVVKPGASVKLSCKASGYIFTSYYMYWVKQAPGQGLEWIGEINPSNGDTNFNEKFKSKATLTVDKSASTAYMELSSLRSEDTAVYYCTRSDGRNDMDSWGQGTLVTVSS
VL: DIVLTQSPATLSVSPGERATISCRADERVSSSTYSYMHWYQQKPGQPPKLLIKYASNLESGVPARFSGSGSGTDFTLTISSVEPEDFATYYCQHSWEIPPTFGGGTKLEIK
notes: also called double mutant
Molecule B1 displayed an equilibrium dissociation constant (Kd) in assay [1] of 0.041 nM. In assay [2], the “fold higher affinity compared to the wildtype 5c8 Fab” value worked out at 9 fold. The “ELISA fold-improvement over wildtype” value in assay [3] turned out to be 5.6 fold. Also, in the assay with CD154 on D1.1 cells, the “IC50 (ug/ml), T cell-dependent B cell activation assay” value (shortened to “IC50 (ug/ml)”) was 0.287 µg/mL.

B2: 5c8 Fab Mutant #7 (light chain Q27E) (Fab, V domains shown)
VH: B1 VH
VL: B1 VL with D26S
notes: also called Gln27Glu
The molecule B2 gave a Kd in assay [1] of 0.081 nM. In assay [3], the “ELISA fold-improvement over wildtype” value was 6.3 fold.

B3: 5c8 Fab Mutant #21 (heavy T30H/Y33W/S54N; light S26D/Q27E) (Fab, V domains shown)
VH: B1 VH with T30H, Y33W, S54N
VL: B1 VL
Molecule B3 showed a dissociation constant (Kd) in assay [1] of 0.101 nM.

B4: 5c8 Fab Mutant #27 (heavy Y33W/S54N; light S26D/Q27E/T33W) (Fab, V domains shown)
VH: B1 VH with Y33W, S54N
VL: B1 VL with T33W
Molecule B4 showed a Kd in assay [1] of 0.052 nM.

B5: 5c8 Fab Mutant #8 (light chain S31V) (Fab, V domains shown)
VH: B1 VH
VL: B1 VL with D26S, E27Q, S31V
Consider B5, for which the “ELISA fold-improvement over wildtype” value in assay [3] turned out to be 0.02 fold.

B6: 5c8 Fab Mutant #1 (heavy chain T30H) (Fab, V domains shown)
VH: B1 VH with T30H
VL: B1 VL with D26S, E27Q
B6: the affinity in assay [1], expressed as Kd, was 0.307 nM. Moreover, the “ELISA fold-improvement over wildtype” value in assay [3] is 2.3 fold.

B7: 5c8 Fab Mutant #2 (heavy chain Y33W) (Fab, V domains shown)
VH: B1 VH with Y33W
VL: B1 VL with D26S, E27Q
Molecule B7 gave a dissociation constant Kd in assay [1] of 0.169 nM. Further, in assay [3], the “ELISA fold-improvement over wildtype” value stood at 7 fold.

B8: 5c8 Fab Mutant #20 (heavy S54N; light S26D/Q27E/T33W) (Fab, V domains shown)
VH: B1 VH with S54N
VL: B1 VL with T33W
As to B8, the Kd in assay [1] came to 0.044 nM.

B9: 5c8 Fab Mutant #28 (heavy Y33W/S54N; light S26D/Q27E) (Fab, V domains shown)
VH: B1 VH with Y33W, S54N
VL: B1 VL
The molecule B9 showed a Kd in assay [1] of 0.077 nM.

B10: 5c8 Fab Mutant #18 (heavy T30H; light S26D/Q27E/T33W) (Fab, V domains shown)
VH: B1 VH with T30H
VL: B1 VL with T33W
In assay [1], B10 gave a Kd of 0.054 nM. Moreover, the “ELISA fold-improvement over wildtype” value in assay [3] amounted to 5.4 fold.

B11: 5c8 Fab Mutant #5 (light chain T33W) (Fab, V domains shown)
VH: B1 VH
VL: B1 VL with D26S, E27Q, T33W
For B11, in assay [1], the Kd was 0.158 nM. In addition, in assay [3], the “ELISA fold-improvement over wildtype” value came out at 5 fold.

B12: 5c8 Fab Mutant #16 (heavy T30H; light S26D/Q27E) (Fab, V domains shown)
VH: B1 VH with T30H
VL: B1 VL
Take B12: the affinity in assay [1], expressed as Kd, was 0.07 nM. For the same molecule, the “ELISA fold-improvement over wildtype” value in assay [3] stood at 5.8 fold.

B13: 5c8 Fab Mutant #15 (light chain S26D/Q27E/T33W) (Fab, V domains shown)
VH: B1 VH
VL: B1 VL with T33W
Regarding B13, binding in assay [1] was characterised by a dissociation constant (Kd) of 0.044 nM. In assay [3], the “ELISA fold-improvement over wildtype” value was determined as 3.8 fold.

B14: 5c8 Fab Mutant #17 (heavy Y33W; light S26D/Q27E/T33W) (Fab, V domains shown)
VH: B1 VH with Y33W
VL: B1 VL with T33W
As for B14, the dissociation constant (Kd) in assay [1] worked out at 0.023 nM. Also, in assay [3], the “ELISA fold-improvement over wildtype” value stood at 5.9 fold. Also, in the assay with CD154 on D1.1 cells, the “IC50 (ug/ml)” value came out at 0.131 µg/mL.

B15: 5c8 Fab Mutant #24 (heavy T30H/Y33W; light S26D/Q27E) (Fab, V domains shown)
VH: B1 VH with T30H, Y33W
VL: B1 VL
B15 showed a Kd in assay [1] of 0.052 nM. The “ELISA fold-improvement over wildtype” value in assay [3] was found to be 8 fold.

B16: 5c8 Fab Mutant #10 (light chain Y54E) (Fab, V domains shown)
VH: B1 VH
VL: B1 VL with D26S, E27Q, Y54E
notes: also called Tyr54Glu
As for B16, the “ELISA fold-improvement over wildtype” value in assay [3] is 0.06 fold.

B17: 5c8 Fab Mutant #9 (light chain T33D) (Fab, V domains shown)
VH: B1 VH
VL: B1 VL with D26S, E27Q, T33D
B17: the “ELISA fold-improvement over wildtype” value in assay [3] was 0.22 fold.

B18: 5c8 Fab Mutant #11 (heavy chain Y33F) (Fab, V domains shown)
VH: B1 VH with Y33F
VL: B1 VL with D26S, E27Q
Take B18: the “ELISA fold-improvement over wildtype” value in assay [3] was 0.05 fold.

B19: 5c8 Fab Mutant #23 (heavy Y33W; light S26D/Q27E) (Fab, V domains shown)
VH: B1 VH with Y33W
VL: B1 VL
In assay [1], B19 displayed a Kd of 0.053 nM. Besides, the “ELISA fold-improvement over wildtype” value in assay [3] is 5.2 fold.

B20: 5c8 Fab Mutant #22 (heavy T30H/Y33W/S54N; light S26D/Q27E/T33W) (Fab, V domains shown)
VH: B1 VH with T30H, Y33W, S54N
VL: B1 VL with T33W
Molecule B20 showed a Kd in assay [1] of 0.055 nM. That is a picomolar value.

B21: 5c8 Fab Mutant #13 (heavy chain N59L) (Fab, V domains shown)
VH: B1 VH with N59L
VL: B1 VL with D26S, E27Q
notes: also called Asn59Leu
Consider B21, for which the “ELISA fold-improvement over wildtype” value in assay [3] came out at 0.01 fold.

B22: 5c8 Fab Mutant #3 (light chain Y36W) (Fab, V domains shown)
VH: B1 VH
VL: B1 VL with D26S, E27Q, Y36W
Regarding B22, the Kd in assay [1] was 0.42 nM.

B23: 5c8 Fab Mutant #19 (heavy S54N; light S26D/Q27E) (Fab, V domains shown)
VH: B1 VH with S54N
VL: B1 VL
For the molecule B23, the dissociation constant Kd in assay [1] amounted to 0.065 nM.

B24: 5c8 Fab Mutant #4 (heavy chain S54N) (Fab, V domains shown)
VH: B1 VH with S54N
VL: B1 VL with D26S, E27Q
B24 showed a dissociation constant Kd in assay [1] of 0.298 nM. Moreover, in assay [3], the “ELISA fold-improvement over wildtype” value turned out to be 2 fold.

B25: 5c8 Fab Mutant #12 (heavy chain N59D) (Fab, V domains shown)
VH: B1 VH with N59D
VL: B1 VL with D26S, E27Q
notes: also called Asn59Asp
With B25, in assay [3], the “ELISA fold-improvement over wildtype” value came out at 0.13 fold.

B26: 5c8 Fab Mutant #25 (heavy T30H/Y33W; light S26D/Q27E/T33W) (Fab, V domains shown)
VH: B1 VH with T30H, Y33W
VL: B1 VL with T33W
With B26, the “fold higher affinity compared to the wild type” value in assay [4] was found to be 25 fold. Moreover, the Kd in assay [1] is 0.012 nM. In assay [3], the “ELISA fold-improvement over wildtype” value is 5.6 fold. Moreover, the “IC50 (ug/ml)” value with CD154 on D1.1 cells came to 0.165 µg/mL.

B27: 5c8 Fab Mutant #6 (light chain S26D) (Fab, V domains shown)
VH: B1 VH
VL: B1 VL with E27Q
notes: also called Ser26Asp
For B27, in assay [1], the dissociation constant Kd is 0.142 nM. For the same molecule, the “ELISA fold-improvement over wildtype” value in assay [3] is 2.6 fold.

B28: 5c8 Fab Mutant #26 (heavy T30H/S54N; light S26D/Q27E/T33W) (Fab, V domains shown)
VH: B1 VH with T30H, S54N
VL: B1 VL with T33W
In assay [1], B28 returned a dissociation constant Kd of 0.063 nM.
